Residue numbers refer to the chain shown, from its start.
B1: Phage # 54 Fab (IL-13-142 library) (Fab, V domains shown)
VH: QVTLKESGPVLVKPTETLTLTCTVSGFSLSTYGMGVGWIRQPPGKALEWLAHIWWDDVKRYNPALKSRLTISKDTSKSQVVLTMTNMDPVDTATYYCARMGSDYDVWFDYWGQGTLVTVSS
VL: DIQMTQSPSTLSASVGDRVTITCRASKSISKYLAWYQQKPGKAPKLLIYSGSTLQSGVPSRFSGSGSGTEFTLTISSLQPDDFATYYCQQHDWGPYTFGGGTKVEIK
notes: Fab on phage pIX
B2: Phage # 01 Fab (IL-13-142 library) (Fab, V domains shown)
VH: B1 VH
VL: B1 VL with D92W
notes: Fab on phage pIX
B3: Phage # 04 Fab (IL-13-142 library) (Fab, V domains shown)
VH: B1 VH
VL: B1 VL with H91Q, W93L
notes: Fab on phage pIX
B4: Phage # 05 Fab (IL-13-142 library) (Fab, V domains shown)
VH: B1 VH
VL: B1 VL with D92V, W93S
notes: Fab on phage pIX
B5: Phage # 06 Fab (IL-13-142 library) (Fab, V domains shown)
VH: B1 VH
VL: B1 VL with H91P, D92L, W93T, G94H
notes: Fab on phage pIX
B6: Phage # 09 Fab (IL-13-142 library) (Fab, V domains shown)
VH: B1 VH
VL: B1 VL with D92L, W93D, G94V
notes: Fab on phage pIX
B7: Phage # 10 Fab (IL-13-142 library) (Fab, V domains shown)
VH: B1 VH
VL: B1 VL with D92L
notes: Fab on phage pIX
B8: Phage # 11 Fab (IL-13-142 library) (Fab, V domains shown)
VH: B1 VH
VL: B1 VL with H91Q, W93V
notes: Fab on phage pIX
B9: Phage # 13 Fab (IL-13-142 library) (Fab, V domains shown)
VH: B1 VH
VL: B1 VL with D92E
notes: Fab on phage pIX
B10: Phage # 15 Fab (IL-13-142 library) (Fab, V domains shown)
VH: B1 VH
VL: B1 VL with H91P, D92L, W93D, G94A
notes: Fab on phage pIX
B11: Phage # 16 Fab (IL-13-142 library) (Fab, V domains shown)
VH: B1 VH
VL: B1 VL with D92V, W93G
notes: Fab on phage pIX
B12: Phage # 18 Fab (IL-13-142 library) (Fab, V domains shown)
VH: B1 VH
VL: B1 VL with H91W, W93G
notes: Fab on phage pIX
B13: Phage # 21 Fab (IL-13-142 library) (Fab, V domains shown)
VH: B1 VH
VL: B1 VL with H91W, D92S, W93D
notes: Fab on phage pIX
B14: Phage # 22 Fab (IL-13-142 library) (Fab, V domains shown)
VH: B1 VH
VL: B1 VL with W93P
notes: Fab on phage pIX
B15: Phage # 27 Fab (IL-13-142 library) (Fab, V domains shown)
VH: B1 VH
VL: B1 VL with D92N, W93D, G94S
notes: Fab on phage pIX
B16: Phage # 29 Fab (IL-13-142 library) (Fab, V domains shown)
VH: B1 VH
VL: B1 VL with D92W, W93M, G94A
notes: Fab on phage pIX
B17: Phage # 30 Fab (IL-13-142 library) (Fab, V domains shown)
VH: B1 VH
VL: B1 VL with D92L
notes: Fab on phage pIX
B18: Phage # 31 Fab (IL-13-142 library) (Fab, V domains shown)
VH: B1 VH
VL: B1 VL with D92F, W93R, G94R
notes: Fab on phage pIX
B19: Phage # 32 Fab (IL-13-142 library) (Fab, V domains shown)
VH: B1 VH
VL: B1 VL with D92L, W93G, G94T
notes: Fab on phage pIX
B20: Phage # 35 Fab (IL-13-142 library) (Fab, V domains shown)
VH: B1 VH
VL: B1 VL with W93R
notes: Fab on phage pIX
B21: Phage # 36 Fab (IL-13-142 library) (Fab, V domains shown)
VH: B1 VH
VL: B1 VL with D92E, W93L
notes: Fab on phage pIX
B22: Phage # 39 Fab (IL-13-142 library) (Fab, V domains shown)
VH: B1 VH
VL: B1 VL with D92L, W93G, G94V
notes: Fab on phage pIX
B23: Phage # 40 Fab (IL-13-142 library) (Fab, V domains shown)
VH: B1 VH
VL: B1 VL with D92S, W93R
notes: Fab on phage pIX
B24: Phage # 43 Fab (IL-13-142 library) (Fab, V domains shown)
VH: B1 VH
VL: B1 VL with D92L, W93G, G94Q
notes: Fab on phage pIX
B25: Phage # 44 Fab (IL-13-142 library) (Fab, V domains shown)
VH: B1 VH
VL: B1 VL with W93I
notes: Fab on phage pIX
B26: Phage # 46 Fab (IL-13-142 library) (Fab, V domains shown)
VH: B1 VH
VL: B1 VL with D92V, W93T, G94L
notes: Fab on phage pIX
B27: Phage # 47 Fab (IL-13-142 library) (Fab, V domains shown)
VH: B1 VH
VL: B1 VL with H91L, D92T, W93Y, G94E
notes: Fab on phage pIX
B28: Phage # 51 Fab (IL-13-142 library) (Fab, V domains shown)
VH: B1 VH
VL: B1 VL with D92S, W93A
notes: Fab on phage pIX
B29: Phage # 55 Fab (IL-13-142 library) (Fab, V domains shown)
VH: B1 VH
VL: B1 VL with D92L, W93T, G94N
notes: Fab on phage pIX
B30: Phage # 56 Fab (IL-13-142 library) (Fab, V domains shown)
VH: B1 VH
VL: B1 VL with D92W, W93D, G94A
notes: Fab on phage pIX
B31: Phage # 57 Fab (IL-13-142 library) (Fab, V domains shown)
VH: B1 VH
VL: B1 VL with G94E
notes: Fab on phage pIX
B32: Phage # 61 Fab (IL-13-142 library) (Fab, V domains shown)
VH: B1 VH
VL: B1 VL with D92L, W93F, G94T
notes: Fab on phage pIX
B33: Phage # 65 Fab (IL-13-142 library) (Fab, V domains shown)
VH: B1 VH
VL: B1 VL with W93F, G94V
notes: Fab on phage pIX
B34: Phage # 67 Fab (IL-13-142 library) (Fab, V domains shown)
VH: B1 VH
VL: B1 VL with H91P, D92I, W93D
notes: Fab on phage pIX
B35: Phage # 70 Fab (IL-13-142 library) (Fab, V domains shown)
VH: B1 VH
VL: B1 VL with D92S
notes: Fab on phage pIX
B36: Phage # 71 Fab (IL-13-142 library) (Fab, V domains shown)
VH: B1 VH
VL: B1 VL with H91P, D92L, W93D, G94S
notes: Fab on phage pIX
B37: Phage # 72 Fab (IL-13-142 library) (Fab, V domains shown)
VH: B1 VH
VL: B1 VL with D92N, W93E
notes: Fab on phage pIX
B38: Phage # 74 Fab (IL-13-142 library) (Fab, V domains shown)
VH: B1 VH
VL: B1 VL with H91Q, W93M
notes: Fab on phage pIX
B39: Phage # 75 Fab (IL-13-142 library) (Fab, V domains shown)
VH: B1 VH
VL: B1 VL with H91L, D92S, W93Y, G94E
notes: Fab on phage pIX
B40: Phage # 76 Fab (IL-13-142 library) (Fab, V domains shown)
VH: B1 VH
VL: B1 VL with D92L, W93D, G94L
notes: Fab on phage pIX
B41: Phage # 77 Fab (IL-13-142 library) (Fab, V domains shown)
VH: B1 VH
VL: B1 VL with W93F, G94A
notes: Fab on phage pIX
B42: Phage # 78 Fab (IL-13-142 library) (Fab, V domains shown)
VH: B1 VH
VL: B1 VL with D92L, W93M, G94A
notes: Fab on phage pIX
B43: Phage # 81 Fab (IL-13-142 library) (Fab, V domains shown)
VH: B1 VH
VL: B1 VL with W93V
notes: Fab on phage pIX
B44: Phage # 82 Fab (IL-13-142 library) (Fab, V domains shown)
VH: B1 VH
VL: B1 VL with W93V, G94S
notes: Fab on phage pIX
B45: Phage # 83 Fab (IL-13-142 library) (Fab, V domains shown)
VH: B1 VH
VL: B1 VL with W93M
notes: Fab on phage pIX
B46: Phage # 84 Fab (IL-13-142 library) (Fab, V domains shown)
VH: B1 VH
VL: B1 VL with D92L, W93I, G94E
notes: Fab on phage pIX
B47: Phage # 85 Fab (IL-13-142 library) (Fab, V domains shown)
VH: B1 VH
VL: B1 VL with D92M
notes: Fab on phage pIX

These binders were tested against T1, human IL-13 R130Q variant (R110Q of the mature chain) (human, UniProt P35225 35-146, Biotinylated on amines (NHS-LC-biotin, 4:1) in ELISA, panning and competition assays. The letters are unchanged.) (assay: single-point (10 nM) phage Fab ELISA on biotinylated IL-13 R130Q).
T1 construct: R130Q counts from Met 1 of the signal peptide, R110Q on the mature chain; Bought from Peprotech; also called IL-13 R110Q; b-R130Q

Compared with B1, B2 is lower in “% of Lc16Hc7” value: 361% for the first, 222% for the second.

Going from B3 to B4, the “% of Lc16Hc7” value rises from 127% to 320%.

Compared with B5, B6 is lower in “% of Lc16Hc7” value: 232% for the first, 171% for the second.

Going from B7 to B8, the “% of Lc16Hc7” value falls from 318% to 229%.

Going from B9 to B10, the “% of Lc16Hc7” value falls from 196% to 154%.

First: B11
Second: B12
The “% of Lc16Hc7” value of the first is lower: 206% for the first, 231% for the second.

Compared with B13, B14 is higher in “% of Lc16Hc7” value: 276% for the first, 313% for the second.

First: B15
Second: B16
The “% of Lc16Hc7” value of the first is higher: 238% for the first, 182% for the second.

Going from B17 to B18, the “% of Lc16Hc7” value rises from 140% to 288%.

Going from B19 to B20, the “% of Lc16Hc7” value rises from 228% to 296%.

Going from B21 to B22, the “% of Lc16Hc7” value falls from 196% to 178%.

Compared with B23, B24 is higher in “% of Lc16Hc7” value: 179% for the first, 205% for the second.

Going from B25 to B26, the “% of Lc16Hc7” value rises from 240% to 281%.

First: B27
Second: B28
The “% of Lc16Hc7” value of the first is higher: 233% for the first, 192% for the second.

Going from B29 to B30, the “% of Lc16Hc7” value falls from 355% to 234%.

B31 and B32 are the same in “% of Lc16Hc7” value: 245% for the first, 245% for the second.

First: B33
Second: B34
The “% of Lc16Hc7” value of the first is higher: 147% for the first, 127% for the second.

Going from B35 to B36, the “% of Lc16Hc7” value falls from 308% to 208%.

Compared with B37, B38 is higher in “% of Lc16Hc7” value: 114% for the first, 301% for the second.

Compared with B39, B40 is lower in “% of Lc16Hc7” value: 355% for the first, 256% for the second.

Compared with B41, B42 is lower in “% of Lc16Hc7” value: 195% for the first, 154% for the second.

First: B43
Second: B44
The “% of Lc16Hc7” value of the first is lower: 231% for the first, 342% for the second.

Going from B45 to B46, the “% of Lc16Hc7” value rises from 145% to 186%.

B47 was tested, and the “% of Lc16Hc7” value was 259%.
